Measurements published in patent US5882644A, “Monoclonal antibodies specific for the platelet derived growth factor β receptor and methods of use thereof” (Protein Design Labs, Inc., priority 1996, dated 1999).

What was measured:
[1] = molecular target: T1, PDGF-R β expressed on transfectant cells (CHO PDGF-R β transfectants, CHO C4 line); Sp2/0 PDGF-R β … (human, UniProt P09619); experiment: competition with 125I-labeled muM4TS.11 on Sp2/0 PDGF-R β transfectant cells
Method: (§1) Figure 11: FIG. 11 is a graph depicting competitive binding of muM4TS.11 (closed squares) and HuM4TS.11 (open squares) and HuM4TS.11(gamma 1) (open diamonds). Increasing concentrations of cold competitor antibodies were incubated with the Sp2/0 transfectants expressing PDGF-R β in the presence of radiolabeled tracer muM4TS.11, and the ratio of bound/free radioactivity determined. The results shown are mean values of triplicate samples.
(§2) To assess the ability of HuM4TS.11 to compete with the muAb for receptor binding, increasing concentrations of the two antibodies were respectively incubated on ice for one hour with Sp2/0 PDGF-R β transfectant cells and a fixed amount of tracer ^125I-labeled M4TS.11. The sample tubes were processed as in the blocking experiment described. HuM4TS.11 competed less well than muM4TS.11 (FIG. 11).
(§3) Loss of binding affinity due to the gamma4 isotype has been observed in another antibody (Horgan et al. (1993) J. Immunol. 150:5400), and may be due to structural constraints imposed on the particular antibody by the gamma4 hinge region. See, Horgan et al. (1993).

[2] = molecular target: T1, PDGF-R β expressed on transfectant …; experiment: competition with 125I-labeled muM4TS.11 on Sp2/0 PDGF-R β transfectant cells (FIG. 11)
Method: as §1, §2, §3

[3] = molecular target: T1, PDGF-R β expressed on transfectant …; experiment: competition with 125I-labeled M4TS.11 on Sp2/0 PDGF-R β transfectant cells
Method: as §1, §2

rat PDGF-R β = rat PDGF-R β (rat, UniProt Q05030); experiment: cell-based or functional assay

Row | Ka [1] [M⁻¹] | fold difference in competition against muM4TS.11 [2] [fold] | Ka [3] [M⁻¹] | IC50 of inhibition of PDGF BB-stimulated proliferation of rat aortic smooth muscle cells (rat PDGF-R β) [µg/mL] | Binder
1 | 1.6e+08 | ~3 | – | – | HuM4TS.11(gamma1) (antibody, V domains shown) VH: QVQLVQSGAEVKKPGASVKVSCKASGYTFTNCWMHWVRQAPGQGLEWIGYINPTTGYSEYNQNFKDKATITADKSTSTAYMELSSLRSEDTAVYYCTSNYGHYDWFGNWGQGTLVT VL: DIQMTQSPSSLSASVGDRVTITCRASESVDSYGNSFMHWYQQKPGKAPKLLIYRASNLESGIPSRFSGSGSRTDFTLTISSLQPEDVATYYCQQSNEDPPTFGQGTKVEIK
2 | – | – | 5e+08 | ~0.5 | muM4TS.11 (antibody, V domains shown) VH: QVQLQQSGAEVAKPGASVKMSCKASGYTFTNCWMHWVKQRPGQGLEWIGYINPTTGYSEYNQNFKDKATLTADKSSNTAYIQLSSLTSEDSAVYYCTSNYGHYDWFANWGQGTLVT VL: DIVLTQSPPSLAVSLGQRATISCRASESVDSYGNSFMHWYQQKPGQPPKLLIYRASNLESGIPARFSGGGSRTDFTLTINPVEADDVATYYCQQSNEDPPTFGGGTKLEIK
